Assay results: the DeepSol protein solubility set

assay: soluble on expression in E. coli; label from the status in PepcDB or PDB records

Sequence	soluble on expression in E. coli
MGHHHHHHHHSSGHIEGRHMAHLLIVNVASHGLILPTLTVVTELVRRGHRVSYVTAGGFAEPVRAAGATVVPYQSEIIDADAAEVFGSDDLGVRPHLMYLRENVSVLRATAEALDGDVPDLVLYDDFPFIAGQLLAARWRRPAVRLSAAFASNEHYSFSQDMVTLAGTIDPLDLPVFRDTLRDLLAEHGLSRSVVDCWNHVEQLNLVFVPKAFQIAGDTFDDRFVFVGPCFDDRRFLGEWTRPADDLPVVLVSLGTTFNDRPGFFRDCARAFDGQPWHVVMTLGGQVDPAALGDLPPNVEAHRWVPHVKVLEQATVCVTHGGMGTLMEALYWGRPLVVVPQSFDVQPMARRVDQLGLGAVLPGEKADGDTLLAAVGAVAADPALLARVEAMRGHVRRAGGAARAADAVEAYLARAR	soluble
MSSAAKNFYQVVKSAPKGRFKGIKRDYTVEDVLKLRGSIDIDYTLATRGANKLWQLLHTEPFVPALGAQTGNQAVQMVRAGLKAIYLSGWQVAADANSAGDMYPDQSLYPANSGPELAKRINRSLRRADQIEACEAEDYLAQRDWYAPIVADAEAGFGGALNCFELMKAYIEAGAAGVHYEDQLGSEKKCGHMGGKVLIPTAQHIRHLNASRLAADVCGVPTIIVARTDAESSRLLTSDIDPRDHPYIDYEAGRTIEGFYRLKDSTAIQYCIDRAIQYAPYTDLIWMETSHPTIADAREFAEGVHKQYPDKMFAYNCSPSFNWKKHLSPSQMEKFQKELGAMGFKYQFITLAGYHANSYSMFDLARNYKEKGMLAYSGLQEGEFAAEKHGYTAVKHQREVGTGYFDAVSRAVTGGLSSTTALSGSTEEAQFQTAVASQDEEILSLTAQNVAGDEKILTPDALRFLHDLNTEFNPRRLRLLSKRNQVQADINNSLWFPDFNKETEVLRSDQGWKGAEIPRDLQDRRVEITGPTDRKMVINAMNSGANVFMADFEDSNSPTWRNQLEGQINLYDAVRNNISYTHPTTKKEYTLNEKHAVLKVRPRGWHLPEKHVLIHNQPTSGSLFDFGLFVFHNAKALIAQGSGPYFYLPKLQSAEEAQLWADVFKYTEDKLGLARGTIKCTVLIEHLLASFQLHEIIHALKDNIVGLNCGRWDYIFSYIKTFQNHRKFLLPDRFQIGMTAPFMRNYSLEVIKACHLRGIHAMGGMAAQIPIKHDQVANDKAFALVRADKEREATDGHDGTWVAHPGLVPLAKRVFDQMMPKPNQISKNLTRANCTKEDLTVIPEGTRTEAGFRHNISVTLGYLDSWLRGTGCVPLYNLMEDAATAEISRAQLWQWLHHDAKLEDGRTIDAGLVKQTIAAETERRLIRAGSVVNRIPEAADLLEKFVTEEKMSDFLTTDAYDRLVSEGY	not soluble
ALGVPFFSCQRGYKGVWRGDGIMQTTCPCGAQITGHVKNGSMRIVGPRTCSNTWHGTFPINAYTTGPCTPSPAPNYSRALWRVAAEEYVEVTRVGDFHYVTGMTTDNVKCPCQVPAPEFFTEVDGVRLHRYAPACKPLLREEVTFLVGLNQYLVGSQLPCEPEPDVAVLTSMDDDDK	soluble
MLSGYIAGAIMKQEVILVLDCGATNVRAIAVNRQGKIVARASTPNASDIAMENNTWHQWSLDAILQRFADCCRQINSELTECHIRGIAVTTFGVDGALVDKQGNLLYPIISWKCPRTAAVMDNIERLISAQRLQAISGVGAFSFNTLYKLVWLKENHPQLLERAHAWLFISSLINHRLTGEFTTDITMAGTSQMLDIQQRDFSPQILQATGIPRRLFPRLVEAGEQIGTLQNSAAAMLGLPVGIPVISAGHDTQFALFGAGAEQNEPVLSSGTWEILMVRSAQVDTSLLSQYAGSTCELDSQAGLYNPGMQWLASGVLEWVRKLFWTAETPWQMLIEEARLIAPGADGVKMQCDLLSCQNAGWQGVTLNTTRGHFYRAALEGLTAQLQRNLQMLEKIGHFKASELLLVGGGSRNTLWNQIKANMLDIPLKVLDDAETTVAGAALFGWYGVGEFNSPEEARAQIHYQFRYFYPQTEPEFIEEV	not soluble
MPAHSLFSLSVSAALLLSAVPLPAQSAGWKPAEQIKTYAISGNTGGGLYQSIGERGPTAGVQAIAHTTFKLTWRRDYRPQPDGACVLVTARPNLTIIYTWPKAPSNLPPAVAASWKTFISGVETHERVHGEHILDMVKKIEAFSTGLRAENDPKCQKVRVVLQQRLGELSNEQRQRGRDFDRDELSPGGRVHQLILTLANGP	soluble
NHPTRPCTCAPGQVEKYLSRISGPLLDRIDIQVEITPVPFEKISDSRPAESSEKIRQRVVAAREIQSKRFADYSGVHCNAQMDDKLMNRYALPDEKGLQRLRTAMERFDLSARAYGRILKVARTIADLAGSEDVGGEHIAEAIGYRNLDRENWGKA	not soluble
MRDLFDEVAGKSPLDPNEAVRRTSRAQLPKRFYTEAGVAEENGGFAVRLDGRAVKTPSRNALAAPDRALAEAIAAEWQAQGETIDPSTMPLTRLANSVIDGVAGRVEAVTDDIAKYFGSDLLFYRAEHPEELIAREGAHWDPVLFWAKDALGAHFILAQGIVHVGQPETALAAARAALPADPWLLGALHVVTTITGSALLALALAHGRLEADQVWAAAHVDEDWNIEQWGLDEEAAARRAAKQAEFAAAAQVIAALGSRRSAAALEHHHHHH	not soluble
QPEDLAYVIFTSGSTGQPKGVAIEHRAARTTIDDINQRFEITDTDVVLGLSALSFDLSVWDIFGGLGAGATVVLPEEDRLRDPSYWLDLCDRHEITVWNSAPPLLEMLVDYAEIDPEAAAHALRNLRMVMLSGDWIPVTLPRRLKELAPNATVMSLGGATEASIWSICHRTSDADEHGPS	not soluble
SLDIRALGYFVAQTDAPQEWQHYAEQVLGMMTAPTDDGGFYIKMDERPYRMLVIPGADKRYFASGWELTGAKAYNNAKQTLLDKGIAFEEANKALCEQRRVQNILIVNDPAGNRHELYWGHVSDCQPFTSPQGVPAFITGDMGLGHTVLPAPNFDETFAFLTDVLGFELSDLFNFKPAPEADPIRIYFMHCGNARHHSLAICEFPVPSGCVHAMVEVENMTEVGRAHDRQQQHQVQLSATLGQHLNDKMTSFYMKTPSGFDLEYGFGGLQVENWEEHCAFEFSRVSLWGHDFSVGEKEG	not soluble
MGHHHHHHHHHHSSGHIEGRHMLGLGASDFEFGVDPSADPELALALRVSMEEQRQRQEEEARRAAAASAAEAGIATTGTEDSDDALLKMTISQQEFGRTGLPDLSSMTEEEQIAYAMQMSLQGAEFGQAESA	soluble
MQPLVSVLICAYNVEKYFAQSLAAVVNQTWRNLDILIVDDGSTDGTPAIARRFQEQDGRIRIISNPRNLGFIASLNIGLDELAKSGGGGEYIARTDADDIASPGWIEKIVGEMEKDRSIIAMGAWLEVLSEENNKSVLAAIARNGAIWDKPTRHEDIVAVFPFGNPIHNNTMIMRRSVIDGGLRFDPAYIHAEDYKFWYEAGKLGRLAYYPEALVKYRFHQDQTSSKYNLQQRRTAWKIKEEIRAGYWKAAGIAVGADCLNYGLLKSTAYALYEKALSGQDIGCLRLFLYEYFLSLEKYSLTDLLDFLTDRVMRKLFAAPQYRKILKKMLRPWKYRSYLEHHHHHH	not soluble
MAHHHHHHMGQGLTGGAMAGAALSITALPLRLTLADHLGICGAATACGLALDFASDCCSKEGRVIIHRDVLLKAQDPLRHLSTFYTTCESNRMARLFRQKHEWVVLESHGQQYYVVQKNPATGDVLMDVRNSLRAANDVGLQVAGKPMHTGEIRQHRMETEFDLPSDLQVAYVIAWLRKEDPRWAFSTENSRQFTARVRYALMDF	not soluble
MPDLMHSELTMSGPEQSLLAGALLGAGLPADAHRHLELAGRDYQSEALAEQHLREAHLLAPDHAAVLIGLYRFYFYKGRLGEALEVAQACLCKAARDNGLASDWRKVRRGDAEFSSYSAVLPRFYLFALKAYAYLQMRLGQLDEGHAAVEKLLELDPTDKVGAAVLLDVWRRIGLEHHHHHH	not soluble
MGSDKIHHHHHHMSPLEMALLVHRGEFHLRELEPELPLEKFLKNADPKKTRKFLEKCGKEELERQKELIRKHNVKLVSFWEDDYPQHLREIRYPPAVLFVRGDAELLKEKCVGVVGTRRPTSYGVNVTKRFVKLLSEYFVIVSGMAFGIDSVAHKEALSSGGKTVAVLGTGVDVVYPRSNERLFHEIVKNGCVVSEYPMGTRARKHHFPARNRIIAGLSDAIIVTEAPIKSGALITVKFALESGRDVFAVPGDIDRKTSEGTNYLIKSGAYPLTDEEDLETHFGIRRIASPSLDDDKKKIYDLLRSSPKTVDELVEELGWSVSEVLRVISEMELMGMIWFDGGAYRLLG	not soluble
